Where no end group is shown, it is not given here. The star is where a group is joined. X1 = 2,3‑bis(palmitoyloxy)‑(2RS)‑propyl, CCCCCCCCCCCCCCCC(=O)OCC(C*)OC(=O)CCCCCCCCCCCCCCC; Palmitoyl = CCCCCCCCCCCCCCCC(=O)*

Data on one molecule can be found in article PMC6179936 (Journal of immunology (Baltimore, Md. : 1950), 2018).

This assay concerns the target T1, Recombinant human SAA1 made in human embryonic kidney (HEK) cells (human, UniProt P0DJI8 19-122).
T1 sequence (looked up): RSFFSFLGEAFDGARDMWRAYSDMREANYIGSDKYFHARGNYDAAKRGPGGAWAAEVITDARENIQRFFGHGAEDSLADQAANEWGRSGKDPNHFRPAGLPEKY
Kind of assay: retention on a 3 kDa cutoff centrifugal filter, read by TNFα from J774 cells.

Turning to Palmitoyl-C(X1)SKKKK [Pam3CSK4, synthetic triacylated lipopeptide], the binding result is given as “binds”.
